Laboratory results reported in US20220380459A1 (DRAGONFLY THERAPEUTICS, published 2022).
Where two headings read alike, the source gives them in different places.

T1: human NKG2D expressed on cells (human, UniProt P26718 1-216)
T1 construct: whole, on cells; also called hNKG2D; EL4-hNKG2D
T1 sequence (looked up): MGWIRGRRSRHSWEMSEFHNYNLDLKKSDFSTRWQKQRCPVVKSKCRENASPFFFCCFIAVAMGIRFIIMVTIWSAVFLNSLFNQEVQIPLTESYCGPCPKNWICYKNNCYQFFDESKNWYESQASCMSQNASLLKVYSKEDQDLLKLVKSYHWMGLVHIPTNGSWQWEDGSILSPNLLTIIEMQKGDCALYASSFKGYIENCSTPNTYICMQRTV


Assays:
[1] = target: T1, human NKG2D expressed on cells; test: flow cytometry on EL4-hNKG2D cells
Procedure: EL4-hNKG2D cells were incubated with the diluted TriNKET or mAb solutions. Binding of the TriNKET or mAb to the EL4 cells was detected using a fluorophore-conjugated anti-human IgG secondary antibody. The cells were analyzed by flow cytometry, and fold over background values were calculated by normalizing binding MFI to the MFI of a control group in which the cells were incubated with the secondary antibody only.

[2] = target: T2, human CD33 expressed on cells (human, UniProt P20138 18-364); test: flow cytometry on Mv4-11 cells, fluorophore-conjugated anti-human IgG secondary antibody, MFI as fold over background (FOB)
T2 construct: endogenous CD33 of human AML cell lines and blood monocytes; also called cell-expressed CD33 (Molm-13, Mv4-11, monocytes)
Procedure: (§1) The cells were analyzed by flow cytometry, and fold over background values were calculated by normalizing binding MFI to the MFI of a control group in which the cells were incubated with the secondary antibody only.

[3] = target: T2, human CD33 expressed on cells; test: flow cytometry on Molm-13 cells, fluorophore-conjugated anti-human IgG secondary antibody, MFI as fold over background (FOB)
Procedure: as §1

[4] = target: T3, human CD33 extracellular domain (human, UniProt P20138 18-259); test: SPR, Fab captured, 37C
T3 construct: soluble monomeric ECD; also called human CD33 ECD; hCD33
Procedure: (§2) Kinetics and affinity of a series of Fab fragments of anti-CD33 antibodies with different CD33 variants (human CD33 ECD, cyno CD33 ECD, V-domain of human CD33, C-domain or human CD33 and selected CD33 SNPs) were assessed by surface plasmon resonance using Biacore 8K instrument (GE Healthcare). Anti-Fab antibody was immobilized on a CMS chip using standard amine coupling chemistry. CD33 FABs were captured on the anti-Fab chip at a density of ˜100 RU. Solutions containing different concentrations of soluble monomeric CD33 or its domains were injected over the captured FABs and control surfaces at 30 μl/min at 37° C. Surfaces were regenerated between cycles by quick injection of 10 mM glycine, pH 1.8. To obtain kinetic rate constants double-referenced data were fit to a 1:1 interaction model using Biacore 8K Evaluation software (GE Healthcare). The equilibrium binding constant KD was determined by the ratio of binding rate constants kd/kₐ.
(§3) Affinity of 29 Fab fragments binding to human and cyno CD33 ECD were assayed by Biacore analysis.

[5] = target: T4, cyno CD33 extracellular domain (Cynomolgus/Rhesus (cyno)); test: SPR, Fab captured, 37C;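 also: surface plasmon resonance with Fabs captured on anti-Fab surface, soluble monomeric CD33 as analyte at several concentrations, double-referenced 1:1 model fit, KD as koff/kon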
T4 construct: soluble monomeric ECD; also called cyno CD33 ECD
Procedure: as §2, §3

[6] = target: T3, human CD33 extracellular domain; test: SPR, Fab captured, 37C; remark: listed apart in the source
[7] = target: T5, V domain of human CD33 (human, UniProt P20138 18-139, limits assumed); test: SPR, Fab captured, 37C
T5 construct: recombinant, fully glycosylated V domain; also called Human CD33 V domain

[8] = target: T3, human CD33 extracellular domain; test: SPR, Fab captured, 37C; remark: listed apart in the source
Procedure: as §2, §3

[9] = target: T3, human CD33 extracellular domain; test: SPR, Fab captured, 37C; remark: listed apart in the source
Procedure: as §2

[10] = target: T6, C domain of human CD33 (human, UniProt P20138 140-259, limits assumed); test: SPR, Fab captured, 37C
T6 construct: recombinant C domain
Procedure: as §2

[11] = target: T5, V domain of human CD33; test: SPR, Fab captured, 37C; remark: listed apart in the source
[12] = target: T7, deglycosylated V domain of human CD33 (human, UniProt P20138 18-139, limits assumed, N-glycans removed by PNGase); test: SPR, Fab captured, 37C
T7 construct: V domain deglycosylated by PNGase before testing; also called deglycosylated V CD33

[13] = target: T3, human CD33 extracellular domain; test: SPR, Fab captured, 37C; remark: listed apart in the source
Procedure: as §2

[14] = target: T5, V domain of human CD33; test: SPR, Fab captured, 37C; remark: listed apart in the source
Procedure: as §2

[15] = target: T6, C domain of human CD33; test: SPR, Fab captured, 37C; remark: listed apart in the source
Procedure: as §2

| Binder | EC50 (read off the curve) [2] | EC50 (read off the curve) [3] | Kd [4] | koff [4] | kon [4] | binding result [5] | Kd [6] | koff [6] | kon [6] | Kd [8] | koff [8] | kon [8] | further results |
| --- | --- | --- | --- | --- | --- | --- | --- | --- | --- | --- | --- | --- | --- |
| A49-F3′-TriNKET-I07 (bispecific antibody, human IgG1, kappa, trispecific: I07 scFv-Fc (CD33), A49 VH-CH1-Fc and A49 VL-CL (NKG2D Fab), heterodimeric IgG1 Fc (CD16); also called TriNKET derivative of I07 mAb) DIQMTQSPSTLSASVGDRVTITCRASQSISSWLAWYQQKPGKAPKLLIYEASSLESGVPSRFSGSGSGTEFTLTISSLQPDDFATYYCQQSQSYPPITFGCGTKVEIKGGGGSGGGGSGGGGSGGGGSEVQLVESGGGLVQPGGSLRLSCAASGFTFGSYWMSWVRQAPGKCLEWVATIKQDGSEKSYVDSVKGRFTISRDNAKNSLYLQMNSLRAEDTAVYYCARPLNAGELDVWGQGTMVTVSSASDKTHTCPPCPAPELLGGPSVFLFPPKPKDTLMISRTPEVTCVVVDVSHEDPEVKFNWYVDGVEVHNAKTKPREEQYNSTYRVVSVLTVLHQDWLNGKEYKCKVSNKALPAPIEKTISKAKGQPREPRVYTLPPCRDELTKNQVSLTCLVKGFYPSDIAVEWESNGQPENNYKTTPPVLVSDGSFTLYSKLTVDKSRWQQGNVFSCSVMHEALHNHYTQKSLSLSPG heavy: EVQLVESGGGLVKPGGSLRLSCAASGFTFSSYSMNWVRQAPGKGLEWVSSISSSSSYIYYADSVKGRFTISRDNAKNSLYLQMNSLRAEDTAVYYCARGAPMGAAAGWFDPWGQGTLVTVSSASTKGPSVFPLAPSSKSTSGGTAALGCLVKDYFPEPVTVSWNSGALTSGVHTFPAVLQSSGLYSLSSVVTVPSSSLGTQTYICNVNHKPSNTKVDKKVEPKSCDKTHTCPPCPAPELLGGPSVFLFPPKPKDTLMISRTPEVTCVVVDVSHEDPEVKFNWYVDGVEVHNAKTKPREEQYNSTYRVVSVLTVLHQDWLNGKEYKCKVSNKALPAPIEKTISKAKGQPREPQVCTLPPSRDELTENQVSLTCLVKGFYPSDIAVEWESNGQPENNYKTTPPVLDSDGSFFLYSWLTVDKSRWQQGNVFSCSVMHEALHNHYTQKSLSLSPG light: DIQMTQSPSSVSASVGDRVTITCRASQGISSWLAWYQQKPGKAPKLLIYAASSLQSGVPSRFSGSGSGTDFTLTISSLQPEDFATYYCQQGVSFPRTFGGGTKVEIKRTVAAPSVFIFPPSDEQLKSGTASVVCLLNNFYPREAKVQWKVDNALQSGNSQESVTEQDSKDSTYSLSSTLTLSKADYEKHKVYACEVTHQGLSSPVTKSFNRGEC | ~2 µg/mL | ~5 µg/mL | – | – | – | – | – | – | – | – | – | – | – |
| ADI-11801 Fab (Fab, V domains shown, Fab fragment; also called Ab4) VH: QVQLVQSGAEVKKPGASVKVSCKASGYTFSDYYMHWVRQAPGQGLEWMGMINPSWGSTSYAQKFQGRVTMTRDTSTSTVYMELSSLRSEDTAVYYCAREAADGFVGERYFDLWGRGTLVTVSS VL: not shown | – | – | 0.55 nM | 0.000417 s⁻¹ | 756000 M⁻¹ s⁻¹ | no binding (tested: 100 nM) | 0.55 nM | 0.000417 s⁻¹ | 756000 M⁻¹ s⁻¹ | 0.55 nM | 0.000417 s⁻¹ | 756000 M⁻¹ s⁻¹ | Kd [7]: 0.69 nM; koff [7]: 0.00125 s⁻¹; kon [7]: 1.8e+06 M⁻¹ s⁻¹; Kd [11]: 0.69 nM; koff [11]: 0.00125 s⁻¹; kon [11]: 1.8e+06 M⁻¹ s⁻¹; Kd [12]: 0.55 nM; koff [12]: 0.00115 s⁻¹; kon [12]: 2.1e+06 M⁻¹ s⁻¹; Kd [13]: 0.55 nM; koff [13]: 0.000417 s⁻¹; kon [13]: 756000 M⁻¹ s⁻¹; Kd [14]: 0.69 nM; koff [14]: 0.00125 s⁻¹; kon [14]: 1.8e+06 M⁻¹ s⁻¹; binding result [15]: no binding |

More lines, main results first:

| EC50 (read off the curve) [2] | EC50 (read off the curve) [3] | Kd [4] | koff [4] | kon [4] | binding result [5] | Kd [6] | koff [6] | kon [6] | Kd [8] | koff [8] | kon [8] | Binder | further results |
| --- | --- | --- | --- | --- | --- | --- | --- | --- | --- | --- | --- | --- | --- |
| ~0.3 µg/mL | ~2 µg/mL | – | – | – | – | – | – | – | – | – | – | I07-F405L mAb (antibody, human IgG1, kappa, V domains shown, Fc variant of I07 with F405L (EU); a Lys may optionally stand at the C-terminus of the heavy chain) VH: EVQLVESGGGLVQPGGSLRLSCAASGFTFGSYWMSWVRQAPGKGLEWVATIKQDGSEKSYVDSVKGRFTISRDNAKNSLYLQMNSLRAEDTAVYYCARPLNAGELDVWGQGTMVTVSS VL: DIQMTQSPSTLSASVGDRVTITCRASQSISSWLAWYQQKPGKAPKLLIYEASSLESGVPSRFSGSGSGTEFTLTISSLQPDDFATYYCQQSQSYPPITFGGGTKVEIKR | binding result [1]: no binding |
| – | – | 0.23 nM | 7.91e-05 s⁻¹ | 339000 M⁻¹ s⁻¹ | no binding (tested: 100 nM) | 0.23 nM | 7.91e-05 s⁻¹ | 339000 M⁻¹ s⁻¹ | 0.23 nM | 7.91e-05 s⁻¹ | 339000 M⁻¹ s⁻¹ | ADI-11815 Fab (Fab, V domains shown, Fab fragment; also called Ab7) VH: QVQLVQSGAEVKKPGASVKVSCKASGYTFGTYYMHWVRQAPGQGLEWMGIINPSRGSTVYAQKFQGRVTMTRDTSTSTVYMELSSLRSEDTAVYYCARGAGYDDEDMDVWGKGTTVTVSS VL: DIQMTQSPSSVSASVGDRVTITCRASQGIDSWLAWYQQKPGKAPKLLIYAASSLQSGVPSRFSGSGSGTDFTLTISSLQPEDFATYYCQQAHSYPLTFGGGTKVEIK | binding result [7]: no binding; Kd [9]: 0.23 nM; koff [9]: 7.91e-05 s⁻¹; kon [9]: 339000 M⁻¹ s⁻¹; binding result [10]: no binding |
